Patent US20210292396A1
Substitutions are numbered along the chain they refer to.

Key:
Assay in all cases: cell-based or functional assay
[1] = molecular target: Env of HIV isolate R1166.C1 (clade AE) (HIV)
[2] = molecular target: Env of HIV isolate HT593.1 (clade B) (HIV)
[3] = molecular target: Env of HIV isolate CNE57 (clade B) (HIV)
[4] = molecular target: HIV Env of isolate ZM53.12 (HIV)
[5] = molecular target: Env of HIV isolate 6471.v1.c16 (clade C) (HIV)
[6] = molecular target: HIV Env of isolate 3168.v4.c10 (HIV)
[7] = molecular target: Env of HIV isolate UG037.8 (clade A) (HIV)
[8] = molecular target: HIV Env of isolate A07412M1.vrc12 (HIV)
[9] = molecular target: Env of HIV isolate CNE58 (clade C in Table 7) (HIV)
[10] = molecular target: Env of HIV isolate KNH1209.18 (clade A) (HIV)
[11] = molecular target: HIV Env of isolate CH117.4 (HIV)
[12] = molecular target: Env of HIV isolate ZM249.1 (clade C) (HIV)
[13] = molecular target: HIV Env of isolate A03349M1.vrc4a (HIV)
[14] = molecular target: Env of HIV isolate CNE4 (clade B) (HIV)
[15] = molecular target: Env of HIV isolate 25925-2.22 (clade C) (HIV)
[16] = molecular target: Env of HIV isolate 286.36 (clade C) (HIV)
[17] = molecular target: Env of HIV isolate CNE20 (clade BC) (HIV)
[18] = molecular target: Env of HIV isolate PVO.04 (clade B) (HIV)
[19] = molecular target: Env of HIV isolate 6540.v4.c1 (clade AC) (HIV)
[20] = molecular target: Env of HIV isolate CNE19 (clade BC) (HIV)
[21] = molecular target: Env of HIV isolate Q769.h5 (clade A) (HIV)
[22] = molecular target: Env of HIV isolate ZM214.15 (clade C) (HIV)
[23] = molecular target: Env of HIV isolate CNE10 (clade B) (HIV)
[24] = molecular target: Env of HIV isolate KER2008.12 (clade A) (HIV)
[25] = molecular target: Env of HIV isolate X2088.c9 (clade G) (HIV)
[26] = molecular target: Env of HIV isolate C4118.09 (clade AE) (HIV)
[27] = molecular target: HIV Env of isolate ZM106.9 (HIV)
[28] = molecular target: HIV Env of isolate 16055-2.3 (HIV)
[29] = molecular target: Env of HIV isolate QH0692.42 (clade B) (HIV)
[30] = molecular target: HIV Env of isolate 191821.E6.1 (HIV)
[31] = molecular target: HIV Env of isolate MW965.26 (HIV)
[32] = molecular target: Env of HIV isolate 3817.v2.c59 (clade CD) (HIV)
[33] = molecular target: HIV Env of isolate CAP45.G3 (HIV)
[34] = molecular target: Env of HIV isolate JRCSF.JB (clade B) (HIV)
[35] = molecular target: Env of HIV isolate 16845-2.22 (clade C) (HIV)
[36] = molecular target: HIV Env of isolate 0077.v1.c16 (HIV)
[37] = molecular target: HIV Env of isolate CH119.10 (HIV)
[38] = molecular target: Env of HIV isolate DU172.17 (clade C) (HIV)
[39] = molecular target: Env of HIV isolate 0921.v2.c14 (clade C) (HIV)
[40] = molecular target: HIV Env of isolate 25710-2.43 (HIV)
[41] = molecular target: Env of HIV isolate ZM109.4 (clade C) (HIV)
[42] = molecular target: Env of HIV isolate X1193.c1 (clade G) (HIV)
[43] = molecular target: Env of HIV isolate P1981.C5.3 (clade G) (HIV)
[44] = molecular target: Env of HIV isolate ZM197.7 (clade C) (HIV)
[45] = molecular target: Env of HIV isolate CNE40 (clade BC) (HIV)
[46] = molecular target: Env of HIV isolate BG505.W6M.C2 (clade A) (HIV)
[47] = molecular target: Env of HIV isolate CNE15 (clade BC) (HIV)
[48] = molecular target: Env of HIV isolate 6101.10 (clade B) (HIV)
[49] = molecular target: HIV Env of isolate ZM135.10a (HIV)
[50] = molecular target: Env of HIV isolate T250-4 (clade AG) (HIV)

B1: ePGT121.18 (ePGT121.18.H1 VH and ePGT121.17.L1 VL) (antibody, V domains shown)
VH: QMQLQESGPGLVKPGETLSLTCSVSGASISSSYWSWLRETPGKGLEWIGYTHHSGDTNYAPSLKSRVHLGLHPSKNQVSLSLTSVTAADTAVYYCARTLHGRRIYGVVAFNEYYTYFYWPTWGKGTQVTVSS
VL: SDISVAPGETVRITCGGESIGSRAVQWYQHRPGQAPRLIIYNNQDRPPGIPERFSGSPDIDFGTTATLTISNVEAGDEATYYCHIWDSRRPTNWELGPGTTLTVL
- IC50, pseudovirus neutralization [1]: > 50 µg/mL
- IC50, pseudovirus neutralization [2]: 3 ng/mL
- IC50, pseudovirus neutralization [3]: 2 ng/mL
- IC80, pseudovirus neutralization (M1) [4]: 0.02 µg/mL
- IC80, pseudovirus neutralization (M2) [4]: 0.032 µg/mL
- IC50, pseudovirus neutralization [5]: 0.378 µg/mL
- IC80, pseudovirus neutralization (M1) [6]: 0.034 µg/mL
- IC80, pseudovirus neutralization (M2) [6]: 0.045 µg/mL
- IC50, pseudovirus neutralization [7]: 2 ng/mL
- IC80, pseudovirus neutralization (M1) [8]: 7 ng/mL
- IC80, pseudovirus neutralization (M2) [8]: 6 ng/mL
- IC50, pseudovirus neutralization [9]: 0.016 µg/mL
- IC50, pseudovirus neutralization [10]: 1 ng/mL
- IC80, pseudovirus neutralization (M1) [11]: > 50 µg/mL
- IC80, pseudovirus neutralization (M2) [11]: > 50 µg/mL
- IC50, pseudovirus neutralization [12]: 0.134 µg/mL
- IC80, pseudovirus neutralization (M1) [13]: 7 ng/mL
- IC80, pseudovirus neutralization (M2) [13]: 0.011 µg/mL
- IC50, pseudovirus neutralization [14]: 2 ng/mL
- IC50, pseudovirus neutralization [15]: 3 ng/mL
- IC50, pseudovirus neutralization [16]: 1 ng/mL
- IC50, pseudovirus neutralization [17]: 1 ng/mL
- IC50, pseudovirus neutralization [18]: 3 ng/mL
- IC50, pseudovirus neutralization [19]: > 50 µg/mL
- IC50, pseudovirus neutralization [20]: 1 ng/mL
- IC50, pseudovirus neutralization [21]: > 50 µg/mL
- IC50, pseudovirus neutralization [22]: 0.018 µg/mL
- IC50, pseudovirus neutralization [23]: 2 ng/mL
- IC50, pseudovirus neutralization [24]: 3 ng/mL
- IC50, pseudovirus neutralization [25]: 2 ng/mL
- IC50, pseudovirus neutralization [26]: > 50 µg/mL
- IC80, pseudovirus neutralization (M1) [27]: 3 ng/mL
- IC80, pseudovirus neutralization (M2) [27]: 4 ng/mL
- IC80, pseudovirus neutralization (M1) [28]: 0.089 µg/mL
- IC80, pseudovirus neutralization (M2) [28]: 0.059 µg/mL
- IC50, pseudovirus neutralization [29]: 0.006 µg/mL
- IC80, pseudovirus neutralization (M1) [30]: 0.095 µg/mL
- IC80, pseudovirus neutralization (M2) [30]: 0.105 µg/mL
- IC80, pseudovirus neutralization (M1) [31]: 6 ng/mL
- IC80, pseudovirus neutralization (M2) [31]: 4 ng/mL
- IC50, pseudovirus neutralization [32]: 0.546 µg/mL
- IC80, pseudovirus neutralization (M1) [33]: 20.6 µg/mL
- IC80, pseudovirus neutralization (M2) [33]: 47.5 µg/mL
- IC50, pseudovirus neutralization [34]: 3 ng/mL
- IC50, pseudovirus neutralization [35]: 0.036 µg/mL
- IC80, pseudovirus neutralization (M1) [36]: > 50 µg/mL
- IC80, pseudovirus neutralization (M2) [36]: > 50 µg/mL
- IC80, pseudovirus neutralization (M1) [37]: 0.01 µg/mL
- IC80, pseudovirus neutralization (M2) [37]: 0.014 µg/mL
- IC50, pseudovirus neutralization [38]: 3 ng/mL
- IC50, pseudovirus neutralization [39]: 0.091 µg/mL
- IC80, pseudovirus neutralization (M1) [40]: 0.01 µg/mL
- IC80, pseudovirus neutralization (M2) [40]: 0.013 µg/mL
- IC50, pseudovirus neutralization [41]: 7.26 µg/mL
- IC50, pseudovirus neutralization [42]: 2 ng/mL
- IC50, pseudovirus neutralization [43]: 1 ng/mL
- IC50, pseudovirus neutralization [44]: > 50 µg/mL
- IC50, pseudovirus neutralization [45]: 0.015 µg/mL
- IC50, pseudovirus neutralization [46]: 0.014 µg/mL
- IC50, pseudovirus neutralization [47]: 5.69 µg/mL
- IC50, pseudovirus neutralization [48]: 1 ng/mL
- IC80, pseudovirus neutralization (M1) [49]: 0.14 µg/mL
- IC80, pseudovirus neutralization (M2) [49]: 0.188 µg/mL
- IC50, pseudovirus neutralization [50]: 0.8 ng/mL

B2: ePGT121.18.17 (ePGT121.18.H17 VH and ePGT121.17.L1 VL) (antibody, V domains shown)
VH: B1 VH with H68T, L69I, H72D
VL: B1 VL
- IC50, pseudovirus neutralization [1]: > 50 µg/mL
- IC50, pseudovirus neutralization [2]: 14 ng/mL
- IC50, pseudovirus neutralization [3]: 6 ng/mL
- IC80, pseudovirus neutralization [4]: 0.079 µg/mL
- IC50, pseudovirus neutralization [5]: 1.09 µg/mL
- IC80, pseudovirus neutralization [6]: 0.171 µg/mL
- IC50, pseudovirus neutralization [7]: 9 ng/mL
- IC80, pseudovirus neutralization [8]: 0.011 µg/mL
- IC50, pseudovirus neutralization [9]: 0.053 µg/mL
- IC50, pseudovirus neutralization [10]: 3 ng/mL
- IC80, pseudovirus neutralization [11]: > 50 µg/mL
- IC50, pseudovirus neutralization [12]: 0.332 µg/mL
- IC80, pseudovirus neutralization [13]: 0.02 µg/mL
- IC50, pseudovirus neutralization [14]: 8 ng/mL
- IC50, pseudovirus neutralization [15]: 11 ng/mL
- IC50, pseudovirus neutralization [16]: 3 ng/mL
- IC50, pseudovirus neutralization [17]: 2 ng/mL
- IC50, pseudovirus neutralization [18]: 9 ng/mL
- IC50, pseudovirus neutralization [19]: > 50 µg/mL
- IC50, pseudovirus neutralization [20]: 3 ng/mL
- IC50, pseudovirus neutralization [21]: > 50 µg/mL
- IC50, pseudovirus neutralization [22]: 0.08 µg/mL
- IC50, pseudovirus neutralization [23]: 4 ng/mL
- IC50, pseudovirus neutralization [24]: 10 ng/mL
- IC50, pseudovirus neutralization [25]: 6 ng/mL
- IC50, pseudovirus neutralization [26]: > 50 µg/mL
- IC80, pseudovirus neutralization [27]: 8 ng/mL
- IC80, pseudovirus neutralization [28]: 0.207 µg/mL
- IC50, pseudovirus neutralization [29]: 0.035 µg/mL
- IC80, pseudovirus neutralization [30]: 0.727 µg/mL
- IC80, pseudovirus neutralization [31]: 0.011 µg/mL
- IC50, pseudovirus neutralization [32]: 4.75 µg/mL
- IC80, pseudovirus neutralization [33]: > 50 µg/mL
- IC50, pseudovirus neutralization [34]: 7 ng/mL
- IC50, pseudovirus neutralization [35]: 0.232 µg/mL
- IC80, pseudovirus neutralization [36]: > 50 µg/mL
- IC80, pseudovirus neutralization [37]: 0.028 µg/mL
- IC50, pseudovirus neutralization [38]: 7 ng/mL
- IC50, pseudovirus neutralization [39]: 0.189 µg/mL
- IC80, pseudovirus neutralization [40]: 0.026 µg/mL
- IC50, pseudovirus neutralization [41]: 8.44 µg/mL
- IC50, pseudovirus neutralization [42]: 5 ng/mL
- IC50, pseudovirus neutralization [43]: 2 ng/mL
- IC50, pseudovirus neutralization [44]: > 50 µg/mL
- IC50, pseudovirus neutralization [45]: 0.036 µg/mL
- IC50, pseudovirus neutralization [46]: 0.047 µg/mL
- IC50, pseudovirus neutralization [47]: 14 µg/mL
- IC50, pseudovirus neutralization [48]: 4 ng/mL
- IC80, pseudovirus neutralization [49]: 0.78 µg/mL
- IC50, pseudovirus neutralization [50]: 2 ng/mL

B3: ePGT121.15.H2.L1 (antibody, V domains shown)
VH: B1 VH with Y113W, Y114F, P120E, T121V
VL: B1 VL with T14S, P32A, R37K, S71T, E95V, L96F, P98G
- neutralization (Table 6 value) [8]: 0.000944
